*1 amine or outer side, *2 acyl side, *3 side chain or, on linkers, in order; H or OH if unused. Bridges are numbered along the chain shown (N, C = ends). [ ]: non-standard residue; d: D form. The star is where a group is joined. C20 diacid = O=C(O)CCCCCCCCCCCCCCCCCCC(=O)*; γGlu = O=C(O)[C@H](CCC(=O)[*:2])N[*:1]; Hyp = O=C(O)[C@@H]1C[C@@H](O)CN1
T1: human amylin receptor (AMY3) on CHO-K1/Ga15/AMY3 cells (human, UniProt P30988 25-474; O60896 24-148)
T1 sequence (looked up) 1: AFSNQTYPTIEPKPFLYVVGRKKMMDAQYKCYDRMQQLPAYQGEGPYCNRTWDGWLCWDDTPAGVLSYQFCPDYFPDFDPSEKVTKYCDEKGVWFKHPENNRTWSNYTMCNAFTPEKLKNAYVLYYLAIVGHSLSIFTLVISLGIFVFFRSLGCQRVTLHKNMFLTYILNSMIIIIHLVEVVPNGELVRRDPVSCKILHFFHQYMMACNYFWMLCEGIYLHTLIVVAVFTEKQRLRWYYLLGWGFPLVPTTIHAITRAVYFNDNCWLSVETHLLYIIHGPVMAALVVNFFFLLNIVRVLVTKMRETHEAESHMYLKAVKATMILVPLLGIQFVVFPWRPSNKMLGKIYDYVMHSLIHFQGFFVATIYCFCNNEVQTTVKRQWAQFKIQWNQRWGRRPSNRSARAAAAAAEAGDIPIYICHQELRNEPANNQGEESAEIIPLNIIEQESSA
T1 sequence (looked up) 2: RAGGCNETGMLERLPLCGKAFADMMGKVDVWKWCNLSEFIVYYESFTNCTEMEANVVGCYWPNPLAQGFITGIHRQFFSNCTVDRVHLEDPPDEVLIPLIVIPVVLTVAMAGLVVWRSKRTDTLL

B1: PD156 (peptide)
peptide: {C20 diacid-γGlu}-KCNTATCATQRLANFLVHSSNNFGPILPPTNVGSNTY-NH2
modifications: ends and bridges not checked
B2: PD158 (peptide)
peptide: {C20 diacid-γGlu}-KCNTATCATQRLADFLRHSSNNLRPILPPTNVGSNT[Hyp]-NH2
modifications: disulfide 2-7 (inferred)
B3: PD159 (peptide)
peptide: {C20 diacid-γGlu}-KCNTATCATQRLADFLRHSSNNLHPILPPTNVGSNT[Hyp]-NH2
modifications: disulfide 2-7 (inferred)

Target: T1, human amylin receptor (AMY3) on …
Assay: cell-based or functional assay

| Binder | EC50, CRE-luciferase assay [nM] |
| --- | --- |
| B1 | 0.029 |
| B2 | 0.022 |
| B3 | 0.037 |

Reference: patent US20260115256A1 (HANGZHOU SCIWIND BIOSCIENCES, published 2026)
